49 sequences from the Immune Epitope Database (IEDB) can be followed below.

The target in test [1] is HLA-A*68:02. Kind of test: IEDB peptide-MHC binding, purified MHC/competitive/radioactivity; filed as Kd, often an IC50 or EC50 that approximates it; ≥ and ≤ were set here for values at or beyond the usual limits of such assays.
Test [2] has as its target HLA-A*26:01. The test is described as follows: IEDB peptide-MHC binding, purified MHC/direct/fluorescence; filed as Kd, often an IC50 or EC50 that approximates it; ≥ and ≤ were set here for values at or beyond the usual limits of such assays.
For test [3], the target named is HLA-A*31:01. The test is described as above. The conditions noted are these: source organism: Pseudomonas tolaasii.
Test [4] has as its target HLA-A*03:01. The test is described as above. Conditions: source organism: Pseudomonas tolaasii.
Test [5] addresses HLA-B*27:05. The test is described as above. Conditions: source organism: Pseudomonas tolaasii.
In test [6] the target is HLA-A*69:01. Described as above. The conditions noted are these: source organism: Pseudomonas tolaasii.
For test [7], the target named is HLA-A*02:01. The test is described as above. Conditions: source organism: Pseudomonas tolaasii.
Test [8] addresses HLA-B*40:01. The description is as above. The conditions noted are these: source organism: Pseudomonas fluorescens.
The target of test [9] is HLA-B*15:01. Described as above. The conditions noted are these: source organism: Pseudomonas tolaasii.
The target in test [10] is HLA-A*11:01. The test is described as above. Conditions: source organism: Pseudomonas tolaasii.
For test [11], the target named is HLA-B*58:01. Described as above. The conditions noted are these: source organism: Pseudomonas tolaasii.
Test [12] has as its target HLA-A*01:01. The description is as above. Conditions: source organism: Pseudomonas tolaasii.
The target in test [13] is HLA-B*07:02. Described as above. The conditions noted are these: source organism: Pseudomonas tolaasii.
For test [14], the target named is HLA-B*08:01. The test is described as above.
The target in test [15] is HLA-A*32:01. The test is described as follows: IEDB peptide-MHC binding, purified MHC/competitive/radioactivity; filed as Kd, often an IC50 or EC50 that approximates it; ≥ and ≤ were set here for values at or beyond the usual limits of such assays.
Test [16] has as its target HLA-A*02:03. Described as above.
Test [17] addresses HLA-A*02:06. The test is described as above.
The target of test [18] is HLA-A*26:01. Described as above.
Test [19] addresses HLA-A*29:02. Described as above.
Test [20] concerns the target HLA-A*30:01. The test is described as above.
Test [21] addresses HLA-A*30:02. Described as above.
In test [22] the target is HLA-A*01:01. The description is as above.
The target in test [23] is HLA-B*44:02. The test is described as above.
Test [24] has as its target HLA-B*46:01. Kind of test: IEDB peptide-MHC binding, purified MHC/direct/fluorescence; filed as Kd, often an IC50 or EC50 that approximates it; ≥ and ≤ were set here for values at or beyond the usual limits of such assays. Conditions: source organism: Yellow fever virus.
In test [25] the target is HLA-B*51:01. The test is described as follows: IEDB peptide-MHC binding, purified MHC/competitive/radioactivity; filed as Kd, often an IC50 or EC50 that approximates it; ≥ and ≤ were set here for values at or beyond the usual limits of such assays.
For test [26], the target named is HLA-A*03:01. The description is as above. The conditions noted are these: source organism: Dengue virus 4 Philippines/H241/1956.
For test [27], the target named is HLA-A*11:01. Described as above. The conditions noted are these: source organism: Dengue virus 4 Philippines/H241/1956.
Test [28] has as its target HLA-B*08:01. The description is as above. The conditions noted are these: source organism: Dengue virus 1 Brazil/97-11/1997.
Where [29] appears, read: source organism: Dengue virus 1 Brazil/97-11/1997.
Where [30] appears, read: source organism: Pseudomonas tolaasii.
The mark [31] stands for this setting: source organism: Dengue virus 4 Philippines/H241/1956.
Setting [32] is: source organism: Dengue virus 3 Martinique/1243/1999.
Setting [33] is: source organism: Dengue virus 2 Jamaica/1409/1983.
Where [34] appears, read: source organism: Lymphocytic choriomeningitis virus (strain Armstrong).
[35] abbreviates: source organism: Dengue virus 4 Singapore/8976/1995.
Setting [36] is: source organism: Lymphocytic choriomeningitis virus (strain WE).
Setting [37] is: source organism: Mammarenavirus guanaritoense.
Where [38] appears, read: source organism: Mammarenavirus juninense.
[39] abbreviates: source organism: Mammarenavirus machupoense.

One may read the Kd as the equilibrium constant for the complex coming apart.

For LTVAANEMGL, the Kd in [1] (setting [29]) is 198 nM.
For the sequence AEGTGITHL, the Kd in test [2] (setting [30]) is at least 20000 nM; in test [3], at least 20 µM; in test [4] it was at least 20 µM; in test [5] it was at least 20 µM; in test [6], at least 20 µM; in test [7], at least 20 µM. For the same sequence, the equilibrium dissociation constant (Kd) in [8] is 54.3 nM; in test [9], at least 20 µM; in test [10], at least 20 µM; in [11], at least 20 µM; in test [12] it was at least 20 µM; in [13], at least 20 µM. The sequence further returned a dissociation constant Kd in [14] (setting [30]) of at least 20000 nM.
Regarding ALNELPESL, the Kd came out at 1.4 µM in [15] (setting [31]) and 94.1 nM in [16] (setting [31]).
As to CVMASSVLL, in [1] (source organism: Dengue virus 1 Singapore/S275/1990), the Kd was determined as 1.46 nM.
Sequence DTIYPTAIY yielded a Kd in [2] (source organism: Mycobacterium tuberculosis) of 3 nM.
On to VVIFILLMLV, for which the Kd came to 971 nM in test [17] (setting [32]) and 767 nM in [1] (setting [32]).
As for TIAVSMANI, in test [1] (setting [33]), the dissociation constant (Kd) is 34.2 nM.
Still for that read-out and setting: the figure for TAIANQATV is 10 nM.
Turning to LQFGFGWFSY, the Kd in [18] (setting [34]) was 473 nM; in [19] (setting [34]), 19.6 nM; in test [20] (setting [34]), 5.21 µM; in test [21] (setting [34]), 4.99 nM; in test [15] (setting [34]) it was 0.00732 µM; in test [22] (setting [34]), at least 70400 nM.
As to ADMGCVVSW, the Kd in [23] (setting [35]) stood at 10.6 nM; in test [15] (setting [35]), 0.415 µM.
For LTDNDDILM, the Kd in [18] (setting [36]) is at least 47400 nM; in test [19] (setting [36]) it was 9140 nM; in test [20] (setting [36]), 19.2 µM; in test [21] (setting [36]), 587 nM; in [15] (setting [36]) it was 12.6 µM; in [22] (setting [36]) it was 21.3 nM.
As for AEHSGTSHNI, the Kd in test [23] (setting [29]) turned out to be 48.2 nM.
As for AICSAVPTEW, the Kd in [23] (setting [31]) was 743 nM.
For MEIRPISEK, the equilibrium dissociation constant (Kd) in test [23] (setting [32]) is 1260 nM.
For the sequence NTPEGIIPA, the Kd in test [1] (setting [29]) came out at 9.22 nM.
For the sequence SWDNTSVDLY, the Kd in test [18] (setting [37]) is at least 69700 nM; in [19] (setting [37]), 856 nM; in [20] (setting [37]) it was 9.33 µM; in test [21] (setting [37]), 147 nM; in test [15] (setting [37]), at least 69.9 µM; in [22] (setting [37]), 1280 nM.
As to TAYGVLFSGV, the Kd in test [17] (setting [29]) came to 1.54 nM; in test [1] (setting [29]) it was 5.16 nM; in test [16] (setting [29]), 16.1 nM.
TEVDRTEAK: the Kd in [23] (setting [32]) was at least 20800 nM.
In test [2] (source organism: Influenza A virus (A/Egypt/96/2002(H1N2))), STLELRSGY returned a Kd of 24.8 nM.
For the sequence GVLEEQGSFY, the Kd in test [18] (setting [38]) was 223 nM; in [19] (setting [38]), 1020 nM; in [20] (setting [38]) it was at least 39.6 µM; in test [21] (setting [38]), 243 nM; in [15] (setting [38]), at least 69.9 µM; in [22] (setting [38]), 1640 nM.
In the case of QVFGAIYGA, in test [1] (setting [33]), the Kd came to 1.97 nM.
As to TTDFTRLRY, the equilibrium dissociation constant (Kd) was 2410 nM in test [18] (setting [37]); 59.5 nM in test [19] (setting [37]); 1.93 µM in test [20] (setting [37]); 551 nM in test [21] (setting [37]); 11.5 µM in test [15] (setting [37]); 7.53 nM in [22] (setting [37]).
Take LTAIANQATV: the dissociation constant Kd in [1] (setting [33]) amounted to 18.8 nM.
Take CMLNNSFYY: the Kd in test [18] (setting [39]) came to 958 nM; in test [19] (setting [39]) it was 1.33 nM; in test [20] (setting [39]), 0.556 µM; in test [21] (setting [39]), 5.46 nM; in test [15] (setting [39]), 10.5 µM; in test [22] (setting [39]) it was 1780 nM.
Consider AMKAQFERDL, for which, in test [1] (source organism: Homo sapiens), the equilibrium dissociation constant (Kd) was at least 60000 nM.
As for GTFHTMWHV, the equilibrium dissociation constant (Kd) in test [17] (setting [33]) stood at 7.33 nM; in test [1] (setting [33]) it was 12.2 nM.
In test [14] (source organism: Influenza A virus (A/Ck/HK/CSW161/2003(H9N2))), ILRKATRRL returned a dissociation constant (Kd) of 369 nM.
For the sequence SLIKYKKTLL, in test [1] (source organism: Homo sapiens), the dissociation constant Kd was 649 nM.
On to LSVSLVLVGV, for which the Kd in test [17] (setting [33]) was found to be 75.5 nM; in test [1] (setting [33]), 12.2 nM.
On to SEVSNVQRI, for which the dissociation constant Kd in test [23] (source organism: Lymphocytic choriomeningitis virus (strain Armstrong) (clone 53b)) was 12 nM.
For RTWHYCGSY, the Kd in test [24] is at least 20 µM.
Consider FSLGVLGMAL, for which the equilibrium dissociation constant (Kd) in test [25] (setting [33]) was determined as 3.86 µM; in [17] (setting [33]), 3.5 nM.
In turn, IMRRRQYVL gave a dissociation constant (Kd) in [14] (source organism: Giardia lamblia ATCC 50803) of 4 nM.
With MAEIPLQWI, in test [25] (setting [32]), the Kd came to 3.43 µM.
For the sequence IPPEKCDTL, in test [25] (source organism: Dengue virus 2 16681-PDK53), the Kd was at least 77.4 µM.
On to VPFCSHHFHE, for which the Kd in test [25] (setting [32]) is at least 66.6 µM.
In the case of NTSMAMTCI, in [1] (setting [31]), the Kd was determined as 238 nM.
With YSEESPTEY, the Kd was at least 77900 nM in test [18] (setting [37]); at least 25400 nM in test [19] (setting [37]); 19.4 µM in test [20] (setting [37]); at least 76900 nM in [21] (setting [37]); at least 77.8 µM in test [15] (setting [37]); 225 nM in [22] (setting [37]).
As to GPLIAGGMLI, the Kd in [25] (setting [29]) worked out at 18.8 µM.
DFIGFGAAY showed a Kd in test [2] (source organism: Mycobacterium tuberculosis variant bovis) of 3.2 nM.
Turning to EPPFGDSYI, the Kd in [25] (setting [33]) came out at 0.349 µM.
Consider MTLWYMWQVK, for which the Kd in test [26] worked out at 7.82 nM; in test [27], 6.51 nM; in test [15] (setting [31]) it was 0.927 µM.
For FGRAKGSRAI, in test [25] (setting [31]), the Kd turned out to be 14.5 µM.
FTVHADTGCA: the Kd in [1] (setting [31]) turned out to be 134 nM.
Turning to MTATPPGSV, in [1] (setting [29]), the Kd stood at 6.2 nM.
As for FSRGNSLSGV, the equilibrium dissociation constant (Kd) in [25] (setting [33]) was found to be 11.1 µM.
The sequence WLHRGPKEF showed a Kd in [14] (source organism: West Nile virus) of 2510 nM.
As to MPIRYQTTA, the Kd came to 1.69 µM in test [25] (setting [29]) and 201 nM in test [28].
As to FDLCEGTTVV, the Kd in test [25] (setting [29]) is 10.5 µM.
